The text below walks through data of the RNAGym collection of RNA variant scans (doi:10.7554/elife.80360).

B1: HDV Ribozyme (parent)
chain: GGCCGGCAUGGUCCCAGCCUCCUCGCUGGCGCCGGCUGGGCAACAUUCCGAGGGGACCGUCCCCUCGGUAAUGGCGAAUGGGACCCA

The data set covers variants of B1. Put plainly: self-cleavage, relative activity (ratio to wild type); higher = more cleavage; co-transcriptional.
Regarding GGCCGGCAUGGUACCAGCCUCCUCGCUGGCGCCGGCUGGGCAACAUUCCGAGGGGACCGCCCCCUCGGUAAUGGCGAAUGGGACCCA [C13A U60C], the self-cleavage was found to be 0.0573.
To GGCCGGCAUGGUACCAGCCUCCUCGCAGGCGCCGGCUGGGCAACAUUCCGAGGGGACCGUCCCCUCGGUAAUGGCGAAUGGGACCCA [C13A U27A] belongs 0.831; to GGCCGGCAUGGUACCAGCCUCCUCGCUGGCGCCGGCUGGGCAACAUUCCGAGGGGACCGUCCCCUCGGUAACGGCGAAUGGGACCCA [C13A U72C], 0.0573; to GGCCGGCAUGGUACCAGCCUCCUCGCUGGCGCCGGCUGGGCAACAUUCCGAGGGGACCGUCCCCUCGGUAAAGGCGAAUGGGACCCA [C13A U72A], 0.
GGCCGGCAUGGUACCAGCCUCCUCGCUGGCGCCGGCUGGGCAACAUUCCGAGGGGACCGUCCCCUCGGUAAGGGCGAAUGGGACCCA [C13A U72G]: the self-cleavage stood at 0.0639.
Regarding GGCCGGCAUGGUGCCAGCCUCCUCGCUGGCGCCGGCUGGGCAACAUUCCGAGGGGACCGUCCCCUCGGUACUGGCGAAUGGGACCCA [C13G A71C], the self-cleavage worked out at 0.
Take GGCCGGCAUGGUACCAGCCUCCUCGCUGGCGCCGGCUGGGCAACAUUCCGAGGGAACCGUCCCCUCGGUAAUGGCGAAUGGGACCCA [C13A G55A]: the self-cleavage is 0.222.
On to GGCCGGCAUGGUACCAGCCUCCUCGCUGGCGCCGGCUGGGCAACAUUCCGAGGGUACCGUCCCCUCGGUAAUGGCGAAUGGGACCCA [C13A G55U], for which the self-cleavage amounted to 0.0707.
On to GGCCGGCAUGGUACCAGCCUCCUCGCUGGCGCCGGCUGGGCAACAUUCCGAGGGCACCGUCCCCUCGGUAAUGGCGAAUGGGACCCA [C13A G55C], for which the self-cleavage was 0.143.
For GGCCGGCAUGGUACCAGCCCCCUCGCUGGCGCCGGCUGGGCAACAUUCCGAGGGGACCGUCCCCUCGGUAAUGGCGAAUGGGACCCA [C13A U20C], the self-cleavage was determined as 0.0405.
As for GGCCGGCAUGGUACCAGCCUCCUCGCUGGCGCCGGCUGGGCAACAUUCCGAGGGGACCGUCCCCUCGGUAAUGUCGAAUGGGACCCA [C13A G74U], the self-cleavage is 0.0443.
Take GGCCGGCAUGGUGCCAGCCUCCUCGCUGGCGCCGGCUGGGCGACAUUCCGAGGGGACCGUCCCCUCGGUAAUGGCGAAUGGGACCCA [C13G A42G]: the self-cleavage is 0.178.
Consider GGCCGGCAUGGUGCCAGCCUCCUCGCUGGCGCCGGCUGGGCCACAUUCCGAGGGGACCGUCCCCUCGGUAAUGGCGAAUGGGACCCA [C13G A42C], for which the self-cleavage came to 0.
As to GGCCGGCAUGGUACCAGCCUCCUCGCUGGCGCCGGCUGGGCAACACUCCGAGGGGACCGUCCCCUCGGUAAUGGCGAAUGGGACCCA [C13A U46C], the self-cleavage stood at 0.203.
With GGCCGGCAUGGUACCAGCCUCCUCGCUGGCGCCGGCUGGGCAACAAUCCGAGGGGACCGUCCCCUCGGUAAUGGCGAAUGGGACCCA [C13A U46A], the self-cleavage stood at 0.0346.
As for GGCCGGCAUGGUGCCAGCCUCCUCGCUGGCGCCGGCUGGGCAACAUUCCGAGGGGACCGUCCCCUCGGUAAUGGCGAAUGGGGCCCA [C13G A83G], the figure is 0.0361; as for GGCCGGCAUGGUGCCAGCCUCCUCGCUGGCGCCGGCUGGGCAACAUUCCGAGGGGACCGUCCCCUCGGUAAUGGCGAAUGGGUCCCA [C13G A83U], 0.
With GGCCGGCAUGGUACCAGCCUCCUCGCUGGCGCCGGCUGGGCAACAUUCCGAGGGGACCGUCCCCUCGGAAAUGGCGAAUGGGACCCA [C13A U69A], the self-cleavage was 0.277.
Take GGCCGGCAUGGUACCAGCCUCCUCGCUGGCGCCGGCUGGGCAACAUUCCGAGGGGACCGUCCCCUCGGCAAUGGCGAAUGGGACCCA [C13A U69C]: the self-cleavage is 0.111.
Regarding GGCCGGCAUGGUGCCAGCCUCCUCGCUGGCGCCGGCUGGGCAACAUUCCGAGGGGACCGUCCCCUCGGUAAUGGCGAAUGGGACCCA [C13G], the self-cleavage came to 0.078.
GGCCGGCAUGGUACCAGCCUCCUCGCUGGCGCCGGCUGGGCAACAUACCGAGGGGACCGUCCCCUCGGUAAUGGCGAAUGGGACCCA [C13A U47A]: the self-cleavage worked out at 0.148.
As for GGCCGGCAUGGUACCAGCCUCCUCGCUGGCGCCGGCUGGGCAACAUCCCGAGGGGACCGUCCCCUCGGUAAUGGCGAAUGGGACCCA [C13A U47C], the figure is 0.277.
On to GGCCGGCAUGGUACCAGCCUCCUCGCUGGCGCCGGCUGGGCAACAUGCCGAGGGGACCGUCCCCUCGGUAAUGGCGAAUGGGACCCA [C13A U47G], for which the self-cleavage is 0.138.
In the case of GGCCGGCAUGGUACCAGCCUCCUCGCUGGCGCCGGCGGGGCAACAUUCCGAGGGGACCGUCCCCUCGGUAAUGGCGAAUGGGACCCA [C13A U37G], the self-cleavage worked out at 0.147.
As for GGCCGGCAUGGUACCAGCCUCCUCGCUGGCGCCGGCAGGGCAACAUUCCGAGGGGACCGUCCCCUCGGUAAUGGCGAAUGGGACCCA [C13A U37A], the figure is 0.
As for GGCCGGCAUGGUACCAGCCUCCUCGCUGGCGCCGGCUGGGCAACAUUCCGAGGGGACCGUCCCCUCGAUAAUGGCGAAUGGGACCCA [C13A G68A], the self-cleavage came out at 0.187.
Turning to GGCCGGCAUGGUACCAGCCUCCUCGCUGGCGCCGGCUGGGCAACAUUCCGAGGGGACCGUCCCCUCGCUAAUGGCGAAUGGGACCCA [C13A G68C], the self-cleavage was determined as 0.151.
Take GGCCGGCAUGGUACCAGCCUCCUCGCUGGCGCCGGCUGGGCAACAUUCCGAGGGGACCUUCCCCUCGGUAAUGGCGAAUGGGACCCA [C13A G59U]: the self-cleavage was 0.356.
As for GGCCGGCAUGGUACCAGCCUCCUCGCUGGCGCCGGCUGGGCAACAUUCCGAGGGGACCAUCCCCUCGGUAAUGGCGAAUGGGACCCA [C13A G59A], the figure is 0.166; as for GGCCGGCAUGGUGCCAGCCUCCUCGCUGGCGCCGGCUGGGCAGCAUUCCGAGGGGACCGUCCCCUCGGUAAUGGCGAAUGGGACCCA [C13G A43G], 0.133.
To GGCCGGCAUGGUGCCAGCCUCCUCGCUGGCGCCGGCUGGGCAACAUUCCGUGGGGACCGUCCCCUCGGUAAUGGCGAAUGGGACCCA [C13G A51U] belongs 0; to GGCCGGCAUGGUGCCAGCCUCCUCGCUGGCGCCGGCUGGGCAACAUUCCGGGGGGACCGUCCCCUCGGUAAUGGCGAAUGGGACCCA [C13G A51G], 0.123.
